This passage reports Kd results from paper PMC7904085.

The assay concerns the target Protein A/G. As to the kind of experiment: single-molecule TIRF microscopy, saturation curve.

“Mouse monoclonal anti-V5 tag antibody [SV5-Pk1]” had a Kd of 4.6 nM.
